T1: human Nectin-4 extracellular antigen hNectin-4-His (human, UniProt Q96NY8 32-349)
T1 construct: C-terminal 8xHis tag included
T1 sequence: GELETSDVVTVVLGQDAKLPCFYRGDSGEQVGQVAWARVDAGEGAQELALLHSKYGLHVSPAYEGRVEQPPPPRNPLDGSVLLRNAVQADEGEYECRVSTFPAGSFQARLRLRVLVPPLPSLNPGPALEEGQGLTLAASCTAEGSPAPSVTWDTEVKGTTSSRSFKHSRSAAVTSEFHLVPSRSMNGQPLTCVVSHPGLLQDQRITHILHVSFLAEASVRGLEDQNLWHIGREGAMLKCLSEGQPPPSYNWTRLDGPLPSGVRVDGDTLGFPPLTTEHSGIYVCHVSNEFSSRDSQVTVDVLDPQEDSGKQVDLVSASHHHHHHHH

T2: hNectin-2 (ACRO, PV2-H52E2) (human, UniProt Q92692 32-360)
T2 construct: bought; construct not described
T2 sequence (looked up): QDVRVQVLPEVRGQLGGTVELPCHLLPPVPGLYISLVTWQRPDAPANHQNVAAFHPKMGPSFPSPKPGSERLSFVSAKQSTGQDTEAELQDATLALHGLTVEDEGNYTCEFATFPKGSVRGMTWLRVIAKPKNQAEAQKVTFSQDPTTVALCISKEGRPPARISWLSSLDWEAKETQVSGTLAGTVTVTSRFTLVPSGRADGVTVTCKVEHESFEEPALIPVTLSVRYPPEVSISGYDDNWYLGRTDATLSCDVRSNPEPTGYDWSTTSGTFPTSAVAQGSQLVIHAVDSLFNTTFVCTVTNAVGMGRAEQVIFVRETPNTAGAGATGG

T3: hNectin-1 (ACRO, PV1-H5223) (human, UniProt Q15223 31-334)
T3 construct: bought; construct not described
T3 sequence (looked up): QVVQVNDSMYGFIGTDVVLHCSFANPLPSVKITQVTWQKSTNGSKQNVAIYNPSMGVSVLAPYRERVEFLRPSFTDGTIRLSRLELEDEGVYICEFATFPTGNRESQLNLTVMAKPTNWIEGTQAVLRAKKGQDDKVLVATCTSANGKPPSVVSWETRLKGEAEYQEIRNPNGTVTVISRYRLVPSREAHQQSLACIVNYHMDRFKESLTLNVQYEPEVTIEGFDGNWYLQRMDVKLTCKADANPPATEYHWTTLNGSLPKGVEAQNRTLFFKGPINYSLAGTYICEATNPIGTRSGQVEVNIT

T4: mouse mNectin-4 protein (ACRO, NE4-M52H3) (mouse, UniProt Q8R007 31-347)
T4 construct: bought; construct not described; also called mouse Nectin-4
T4 sequence (looked up): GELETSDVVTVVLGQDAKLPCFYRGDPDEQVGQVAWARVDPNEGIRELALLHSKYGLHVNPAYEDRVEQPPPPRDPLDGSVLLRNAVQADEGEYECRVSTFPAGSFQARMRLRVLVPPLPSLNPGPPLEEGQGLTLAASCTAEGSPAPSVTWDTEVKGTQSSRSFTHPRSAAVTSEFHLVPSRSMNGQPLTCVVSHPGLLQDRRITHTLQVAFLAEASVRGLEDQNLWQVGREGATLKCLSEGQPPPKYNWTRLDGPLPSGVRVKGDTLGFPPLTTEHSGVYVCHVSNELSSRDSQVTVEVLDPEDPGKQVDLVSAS

T5: monkey cNectin-4 protein (ACRO, NE4-C52H4) (cynomolgus monkey, UniProt A0A2K5WES1 32-349)
T5 construct: bought; construct not described; also called cynomolgus monkey Nectin-4
T5 sequence: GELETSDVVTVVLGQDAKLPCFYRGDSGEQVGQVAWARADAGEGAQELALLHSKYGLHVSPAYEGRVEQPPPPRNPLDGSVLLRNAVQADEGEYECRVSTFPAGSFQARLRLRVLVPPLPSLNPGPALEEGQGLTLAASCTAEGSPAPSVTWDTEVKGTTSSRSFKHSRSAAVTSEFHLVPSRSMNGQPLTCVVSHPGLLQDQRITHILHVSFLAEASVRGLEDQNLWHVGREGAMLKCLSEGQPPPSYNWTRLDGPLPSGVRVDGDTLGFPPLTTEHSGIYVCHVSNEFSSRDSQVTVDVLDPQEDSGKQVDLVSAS


Legend:
[1] = target: T1, human Nectin-4 extracellular antigen …; experiment: ELISA, coated hNectin-4-His
Text: (§1) The binding activity of the antibodies was detected by ELISA.

[2] = target: T1, human Nectin-4 extracellular antigen …; experiment: SPR, antibody on Protein A chip, hNectin-4-His analyte, 1:1 fit
Text: In this study, the affinity of the antibodies for the human Nectin-4 extracellular antigen was detected by surface plasmon resonance (SPR) technique (BIAcore: GE Healthcare, T200).

[3] = target: T2, hNectin-2 (ACRO, PV2-H52E2); experiment: ELISA, coated antigen
Text: as §1
(§2) In this assay, the binding of different antibodies to human Nectin-4 homologous proteins hNectin-1 (ACRO, PV1-H5223), hNectin-2 (ACRO, PV2-H52E2), hNectin-3 (ACRO, PV3-H52E4), and hNectin-4-His was detected by ELISA to determine the specificity of the antibodies. For the methodology and procedures, see Example 4. Antigens of interest ([…]) were immobilized; after blocking, serially diluted antibodies (2-fold serially diluted from […]) were added, and HRP-labeled anti-human-Kappa secondary antibody was added for chromogenic reaction.

[4] = target: T3, hNectin-1 (ACRO, PV1-H5223); experiment: ELISA, coated antigen
Text: as §1, §2

[5] = target: T1, human Nectin-4 extracellular antigen …; experiment: ELISA, coated antigen
Text: as §1, §2

[6] = target: T4, mouse mNectin-4 protein (ACRO, …); experiment: ELISA, coated antigen
[7] = target: T1, human Nectin-4 extracellular antigen …; experiment: ELISA, coated antigen; remark: listed apart in the source
[8] = target: T5, monkey cNectin-4 protein (ACRO, …); experiment: ELISA, coated antigen

Row | Binder | EC50 [1] [µg/mL] | Kd [2] [nM] | koff [2] [s⁻¹] | kon [2] [M⁻¹ s⁻¹] | binding result [3] | binding result [4] | EC50 [5] [µg/mL] | EC50 [6] [µg/mL] | EC50 [7] [µg/mL] | EC50 [8] [µg/mL]
1 | antibody 1G8 (antibody, human IgG1, kappa, V domains shown) VH: not shown VL: DIQMTQSPSSLSASVGDRVTITCRASQGISSYLAWYQQKPGKAPKLLIYAASSLQSGVPSRFSGSGSGTDFTLTISSLQPEDFATYYCQQHYTTPPTFGQGTKVEIKR | 0.068 | 4.97 | 0.003 | 605000 | no binding (tested: 2-fold serially diluted from 2 g/mL) | no binding (tested: 2-fold serially diluted from 2 g/mL) | 0.041 | 0.037 | 0.043 | 0.036
2 | antibody 10F4 (antibody, human IgG1, kappa, V domains shown) VH: not shown VL: DIQMTQSPSSLSASVGDRVTITCRASQGISSYLAWYQQKPGKAPKLLIYAASSLQSGVPSRFSGSGSGTDFTLTISSLQPEDFATYYCQQHYTTPPTFGQGTKVEIKR | 0.038 | 2.77 | 0.00103 | 373000 | no binding (tested: 2-fold serially diluted from 2 g/mL) | no binding (tested: 2-fold serially diluted from 2 g/mL) | 0.045 | 0.041 | 0.041 | 0.041
3 | antibody 1F3 (antibody, human IgG1, kappa, V domains shown) VH: not shown VL: DIQMTQSPSSLSASVGDRVTITCRASQGISSYLAWYQQKPGKAPKLLIYAASSLQSGVPSRFSGSGSGTDFTLTISSLQPEDFATYYCQQHYTTPPTFGQGTKVEIKR | 0.041 | 3.21 | 0.00261 | 813000 | no binding (tested: 2-fold serially diluted from 2 g/mL) | no binding (tested: 2-fold serially diluted from 2 g/mL) | 0.04 | 0.034 | 0.036 | 0.034

Reference: patent US20260144882A1 (BIO THERA SOLUTIONS, published 2026)
